Measured values reported in paper PMC5693750 (Journal of molecular biology, 2017).

B1: Chp2 (full-length, wild type) (natural protein, S. pombe, UniProt O42934 1-380, looked up)
chain: MVKSADLDLMNSIISESDENFSPPPFTVEEAENSINNKSSTASLESPQNGSWHPSLYGLSVPEKTHIQNSLDLYSHGNSGSQKTHNVSFSCEIRKVKSSKLSPISNMEDSEDKKEEDESSSYKNEFKSSSSASVSSNFEKTSGSDDHNSQSPVPLNEGFEYIASSGSEDKNSDEEFAVEMILDSRMKKDGSGFQYYLKWEGYDDPSDNTWNDEEDCAGCLELIDAYWESRGGKPDLSSLIRLTRSRARSSNEASYVEKDESSNSDDSISYKRRRSRNAANRITDYVDSDLSESSMKEKQSKIEKYMKSDKSSKNFKPPFQKKSWEDLVDCVKTVQQLDNGKLIAKIKWKNGYVSTHDNIIIHQKCPLKIIEYYEAHIKFT
B2: Swi6 (full-length, wild type) (natural protein, S. pombe, UniProt P40381 1-328, looked up)
chain: MKKGGVRSYRRSSTSKRSVIDDDSEPELPSMTKEAIASHKADSGSSDNEVESDHESKSSSKKLKENAKEEEGGEEEEEDEYVVEKVLKHRMARKGGGYEYLLKWEGYDDPSDNTWSSEADCSGCKQLIEAYWNEHGGRPEPSKRKRTARPKKPEAKEPSPKSRKTDEDKHDKDSNEKIEDVNEKTIKFADKSQEEFNENGPPSGQPNGHIESDNESKSPSQKESNESEDIQIAETPSNVTPKKKPSPEVPKLPDNRELTVKQVENYDSWEDLVSSIDTIERKDDGTLEIYLTWKNGAISHHPSTITNKKCPQKMLQFYESHLTFRENE

Columns and labels:
[1] = target: H3Kc9me3 mononucleosome (Xenopus laevis); experiment: fluorescence polarisation
[2] = target: H3Kc9me3 mononucleosome (Xenopus laevis); experiment: AUC
[3] = target: H3K9me3 tail peptide; experiment: fluorescence polarisation
[4] = target: Unmethylated H3 tail peptide; experiment: fluorescence polarisation
[5] = target: the molecule itself; experiment: AUC
[6] = target: the molecule itself; experiment: AUC; remark: listed apart in the source
[7] = target: B1; experiment: fluorescence polarisation
[8] = target: B2; experiment: fluorescence polarisation
[9] = target: T1, Swi6 chromoshadow domain (CSD) (S. pombe, UniProt P40381 261-328); experiment: NMR titration
T1 sequence: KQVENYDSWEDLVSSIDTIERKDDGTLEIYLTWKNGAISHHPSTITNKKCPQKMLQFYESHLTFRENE

Swi6 L315D (from UniProt P40381 1-328) (natural protein)
fold weaker Kd than wild-type Swi6 [1]: 8.5 fold

Chp2 I370E (from UniProt O42934 1-380) (natural protein)
fold weaker Kd than wild-type Chp2 [1]: 3 fold

Chp2 (full-length, wild type) (from UniProt O42934 1-380) (natural protein)
stoichiometry N [2]: 4 | Kd [1]: 0.43 µM

Swi6 (full-length, wild type) (from UniProt P40381 1-328) (natural protein)
Kd [1]: 0.13 µM

B1
Kd [3]: 1.85 µM | fold weaker binding than to the H3K9me3 tail peptide [4]: > 10 fold | Kd [5]: 183 µM

B2
binding result [6]: binds | fold weaker binding than Chp2 to the same peptide [3]: 5.5 fold | fold weaker binding than Swi6 to H3Kc9me3 nucleosomes [3]: 77 fold | fold weaker binding than to the H3K9me3 tail peptide [4]: > 10 fold

EKAKTSNVCVCIPCKSAEQ [Sgo1 peptide]
Kd [7]: 58.5 µM | Kd [8]: 6.6 ± 2.1 µM

RAVTQYLLHLLQKARPTSQ [Clr3 peptide]
Kd [9]: 68 ± 15 µM | Kd fitted for residue E280 [9]: 62.5 ± 15.4 | Kd fitted for residue H321 [9]: 51.9 ± 7.84
